The source of these data is a protein production outcome set (Wang et al. 2014).

The nature of this data set: label from the status in PepcDB records.
For “MEHDLNDMMVFLAVVETGSFTLAADRLGMPKANVSRKVSRLEKNLAVTLLERSTRSQHLTEAGRRYLAHCKRIHEELDLATASVCELFHSYTGELKIGASVASGQQVLRPALGKFMRQYPDLKVQLNLVNRRVDFIEEGFDVVIRIGQLNDSMLIAKKLGAINRKIFASPSYLAKQGNPDKVEQLTEHQLLIMNPLNISGNKDLKLPLTSTDHETFTLDCQPRLLVDDFSMLKQAIVDGLGIGVLPDYMCRQEVASGQLVNILPDWGMAKVDIYALYPKHRAKIPKVKAFIDFVSELYGEVL”, the protein production result was “not failed”. The entry for “MIFERIKSEGLAHLSYFVGSGNEAIVIDPRRDCQIYFDIARREGMKIKYIFETHRNEDYVIGSLELKELTDAEIYHGKGVDFKYGIFVSDGQEFNFGSMKLTALHTPGHTDESMSYALTYPESGKAPLMVFTGDALFVGDVGRTDLYGPEEIPRMAANLYESIFNKILPLGDGVILCPAHGAGSLCGGAISKREYSTLGLERIQNPALQRTDKEEFIKFKLEEKLEFPPYFKKMEQYNLQGPPLLKGLPVPELLFPKEFVKEMEKGAMVVDTRMPHSFGGAHIKGSYGIWLKGLPYYAGWVLPYDKPILLVLEEKDQLETAVSYLVRIGYDSIAGFLNGGISSWYMKALPVESLNLISVQSLKDKIEKNEEMVILDVRRDEEWEKGHIEGARHVYVGHLEENLDKVPRNSPIIVYCDSSRRSNIAASILKKKGYDMVYNVLGSMTAWKNAGYKVVKLEHHHHHH” is “not failed”. The entry for “MKMKILGISFGTKNGNNDTMCKVALKGAKEAGAEVEFIQMSSINIKHCTGCCACVKTLLSGKGSMCVLKDDFEWLLDKMKDADGIVVSDPIFEEGASGLFHTIMDRFGPRADRGNNIIGTKVAEAIGGKIPDSRMLNDKVISFMGIGGSDWGTRVQCEHAMLALIPMWKVIDNAWFPWAKELVMDDTRLVQVHQIGLNIVEAAKDFEKASYQGEEGVCPHCHNRLFYLEPGTKKAICALCGIVGELDTISGKTIFSFPEEQLGHAHDTLPGKFIHGDDIKKMEGHYAEVRKTQEFKERKTSYNFIETLTKEKQAGLEHHHHHH” is “failed”; for “MIAAPFLGLLLGLAALLLLASPWPFLAPLVVVGLFGLALLYRRPGWGLLGICALVPFEGLFKDSAFSGAKLLGASLILIMLFKLLLRQIPDSRLRSNLWRALGPFLLCLLLSMLYSENLLVSLDSLRELAVGLVLFFVTLLIAREVNLLMLCRLLAVSVAITCVIALVSAKYQVGGRAIGLLQDANYFALLIAMAVPPAIFLALRSPHWPVRLFWVGISLTLMAGMTKTDSRSGLLVVLFTIAIGVWHYRDRLKGLRPKHLGFAMFAVAIVIPLGIAVLPAEYVARIQSLSMLKSGAHSADTSLGRRTSYLVVGGQMIRQNPLLGSGLGTFPIHYAQTGFASSFSENMNEPDLFRRAHNTYLELFSELGIPGGLSFVALMLMGLRNFERARQGFLARGQREQADIATHLGLSLLAMAVFLLFLSAPNHKYLWIFLALSSVLRLQAEDAPVPRPAPA” it is “failed”; for “MQRLLLANDLPGVGKVALATSIPIAAACQVETMLLPTVLLSSHTGGFPDVVIEDMTDLNQAYFEQWKNLNLELAGILSGYCRNPQQLSQLAMYAKHTETPLIVDPIMGDSGRLYTGFTSSYVEAMKELTQSAQLILPNITEASLLTGRNYLGDSYDIHDIEDLLEALAEQVSADIVLTGISFDDSQIGVAYFQQETGEITTYMSKKYPANFFGTGDILSTLLAVATIQQINLHQAIPLALDFIDKSLERTLALDRDLKFGISFEPFLAELQQAFQILKEKL” it is “failed”.

For “KHSSTQQRLSRMLHEDGFVMHYQLLQSVVEKDVISFEALLRYQDREGNLCPPTFISDFQLLNMMPTLDKLVIDKVLTDMQKMDLNEDRRVAINISVASIEEHGFAEHVIDRLKFFSIPPHWLEIEITEEAILSDNHNLLSTLEILKSHGIKIAMDDFGTGYASFPHLLKYPFDKIKLDRSLLLDASTTKGKQLYQLIAQMGDVANCEVVAEGVETEDEFKFVAECGVDKVQGFLIARP”, the protein production result is on record as “failed”. Regarding “MGHHHHHHSHGYLLKPEFMRRPDKSFDPFTEVIVDGIVANALRVKVISGQFLSDRKVGIYVEVDMFGLPVDTRRKYRTRTSQGNSFNPVWDEEPFDFPKVVLPTLASLRIAAFEEGGKFVGHRILPVSAIRSGYHYVCLRNEANQPLCLPALLIYTEASDYIPDDHQDYAEALINPIKHVSLMDQRARQLAALIG”, the protein production result is given as “failed”. For “MNALKNLSLILLLSLAFTGCHNKSSKINDFNLLLYAPEYASGFDIKGAGGKESVLITVRNPWQGADSVTTWLFIVRNGEEVPEGFAGQVLKGDAKRIVAMSSTHIAMLDAIGEVRCITGVSGIDYISNPDIQARRDSIGDVGYEGNINYELLLSLDPDLVLLYGVNGASAMESKLEELDIPFMYVGDYLEESPLGKAEWMVVLSEVTGKREKGEKAFAAIPVRYNALKKKVADSTLGTPSVMLNVPYGDSWFMPSTQSYVARLITDAGGRYIYQKNTGNASIPIDLEEAYLLASDADMWLNVGMANSLDDLKASCPKFTDTRCFKNGEVYNNNARTNTAGGNDYYESAVVNPDIVLRDLVKIFHPELVQEECVYYKQLK”, the protein production entry is “failed”.

For “MATIDLVRHAEPDITIHDDFLRPLTSAGQRQTQQLVDSLHQYPYTAFFSSPLKRAVDTITPIADDHGLPVQKNELLVERKMPAWLPNFSDYVNQQWQDLTFFEKPGESIHQVQERYLSFLYGLPSSAFVAVGSHGTAISSLVEAAIPGIGYHFFSKLGYAAVTRIEMHAGNMVHLAVWEPKSKTFKVLK”, the protein production result is on record as “failed”. The entry for “MSVLKEYRTVSEVVGPLMIVDQVAGVHYNELVDITLHNGERRKGQVLEVQGDKAMVQLFEGSTGINLAKTKVRFTGHPLELAVSEDMVGRIFDGMGQPIDGGPELIPEKYLDIDGQAINPVARDYPDEFIQTGISAIDHLNTLVRGQKLPVFSGSGLPHNELAAQIARQATVLNSDDNFAVVFAAMGITFEEAEFFMNDLRETGAIDRSVLFINLANDPAIERIATPRIALTTAEYLAYEKGMHVLVIMTDMTNYCEALREVSAARREVPGRRGYPGYLYTNLSTLYERAGRLIGKKGSVTQIPILTMPEDDITHPIPDLTGYITEGQIILSQELYKNGFRPPINVLPSLSRLKDKGSGEGKTRQDHAATMNQLFAAYAQGKQAKELAVVLGESALSETDKLYVAFTNRFEEEYINQGFYTNRSIEESLDLGWELLSILPRTELKRIKDDMLDRYLPKADTTMTKVFVAND” is “failed”.

“MLKSKRKEIILSRLEQNKSVTLDELTSILETSESTVRRDLDELESAGFLKRVHGGAELPYSLGQELSNQEKAIKNVQKKLDIARQTAKLIAKQDVIFIDAGTTTELLIDFLPHEQLTVVTNSIHHAAKLVDRGIKTIIIGGAVKHSTDASIGQVAINQIRQITVDKAFLGMNGIDEVYLTTPDLEEAAIKEAIINNSQQTFILMDSSKIGQVTFAKVKEINDINLVTNKTDSELMTIIKEKMKVIQV”: the protein production result is recorded as “failed”. Turning to “MTARYIAIDWGSTNLRAWLYQGEECLESRQSEAGVTRLNGRSPAAVLAEITQHWRDGATPVVMAGMVGSNVGWKIAPYLPLPAAFSDIGQQLTAVGDNIWIIPGLCVSRDDNHNVMRGEETQLLGARALAPSSVYVMPGTHCKWVLADRRQIHDFRTVLTGELHHLLLQLSLVGAGLPPQETSAAAFAAGLQRGINNPAVLPQLFEVRASHVLGALPREQVSEFLSGLLIGAEVATLSDTFAGQQAISLVAGSSLTSRYQQAFAAIGREVSAVAGDTAFQTGIRSIAYAVAN”, the protein production entry is “not failed”. The entry for “GSKGSRIELGDVTPHNIKQLKRLNQVIFPVSYNDKFYKDVLEVGELAKLAYFNDIAVGAVCCRVDHSQNQKRLYIMTLGCLAPYRRLGIGTKMLNHVLNICEKDGTFDNIYLHVQISNESAIDFYRKFGFEIIETKKNYYKRIEPADAHVLQKNLKVPSGQNADVQKTDN” is “failed”.

“MTAHPPRPELQIDIVSDVVCPWCIVGFRQLDQALAATGVLARLRWHPFELNPQMGPEGQNLREHIMEKYGSTPEQSAEARARLTAIGAELGFTFNFTDDSRIVNTFAAHQLLDWAEGQGRQHPLKQALFAAYFTDGRDVSDLSVLLDAVEAAGLDREAAQTALTSGAHQAPVREKQKFWAQHGISGVPSMVFGGKYLLTGAQGADTYAQVIQRCLAEA”: the protein production entry is on record as “not failed”. In the case of “MSIKYLYDRKKIAVTYGEEKYSYADIIKYVNYYSEFLDISKGDRVALMMENRPESIFSFFSIWAKKGIALSLDAGYTVEQLAFVLNDSKPKYIFVSNKIKEVVEKANEQVGNIVKIMVVDEITLPTDYVIKQEEYENDSNEDLAVIVYTSGTTGNPKGVMITYENIKTNMEGVRAVDLVTETDVILAMLPYHHIMPLCFTLILPMYMGVPIVLLTEISSASLLKALQENRVTVILGVPRVWEMLDKAIMTKINQSSLAKFMFKMASKINSMSIRKMLFSKVHKQFGGNIRLMVSGGAKIDKNILEDFRTMGFCAIQGYGMTETAPIITFNVPGRERSDSAGEVIPNVEVKIADDGEILVKGKNVMKGYYNNEQATKEAFDKDGWFHTGDLGKMDGKYLIIIGRKKEMIVLPNGKNIDPNDIEAEIIKNTDLIKEIAVTEYKEQLLAIIYPDFDQIKAKQIVNIKDAIKWEVIDKYNVTAPNYKKIHDIKIVKEELPKTRIGKIRRFMLKDLIEEKTENTDKKEAKKIIEVPAEMKEKFDIINKYMDERYQKAIDLDSHIELDLGFDSLDIVEFMNFLNSTFEITIVEQDFVENKTISAIIKLINDKAGKLVEKIDKNENLKKIIESDSNVKLPKDARYAKVLKFILSLMFRYYFKYKYRGKENLGEGAGIIVGNHQSYLDAFMLNNAFTYKELGGNYYIATALHFKSNFMKYLAGHGNIILVDANRNLKNTLQAAAKVLKSGKKLLIFPEGARTRDGQLQEFKKTFAILSKELNVPIYPFVLKGAYEAFPYNKKFPKRNNISVQFLEKIEPNDKTVEELVEETKNNIAKNYY” it was “failed”. As for “MGHHHHHHSHGIVPGSVVLMAGEPGVGKSTLLLEVASRWASMKEGDGTRTALYVTAEESAGQVRLRAERTAAVKDTLYLAAESNLDVVFGHVNQVKPSLLIVDS”, the protein production entry was “failed”. Regarding “SYTEVRELVNFVCRYLFGHIPRRPVGIFGAELGNYLVSHFSSTWDVHHPKNGEMKRMINTTTSLCFASSAEEAGVPPSDVLRLLPTNMIIFANPGHVFVRLSENGIETPIWIGDVNCDENYQSVPEYVVRTAAIRAEPCSNLGAAGKSVLVGKKPLLTNDKAALEMVNTMYSPLAREKCDDINANLSHLREMYPFRFVYKPSSAQTFSGVEFSQTRFGSSKSRPDLQTMDVIKYLSSQQVSSSSSPSFTYSSINDQMRYSPRF”, the protein production result is given as “not failed”. In the case of “MSTTALVGTGHRPTIVLVGHGMVGQRFLEALAERGLTATHRVVVLCEEPRPAYDRVQLTSYFSGTTPDELSMTDAEFITEHGIDLRLGDPAETVDREARTVTARSGLVIAYDTLVLATGSYPFVPPVPGKDAEGCFVYRTIEDLLAIEAYAKSRATTGAVVGGGLLGLEAAGALKGLGLTSHIVEFAPRLMPVQVDAGGGAALLRTIEDMGLTVHTGTGTQEIVTGDDGAVTGMKLSDGSELATDLVVFSAGVRPRDQLARDCGLPVGERGGIAVDAQCRTEDPHVFAIGECALAADGRVYGLVAPGYEMAETAAATIASADSSFTGADLSTKLKLLGVDVASFGDAHGATAGCLDVVYADSRSGTYKKLVIGRDGELLGGILVGDADAYGTLRALTGSVPPVSPEQLVLPAGGGGGVALGPSALPDSAVICSCHNVTKGAIRGAVTEHSCTTLPEVKKCTKAGTGCGSCVKVLGQLVNDELTASGVEVDHGLCGCFTQTREELYEIVLALRITSYRSLLDRYGREGARGGDGCEVCKPTVGSIIASLAPTIGANGYVLDGEQSALQDTNDHFLANLQKNGSYSIVPRIPGGEITPEKLIVIGEVARDFGLYTKITGGQRIDLFGARVEQLPLIWTRLVDAGFESGHAYGKSLRTVKSCVGQSWCRYGVQDSVRMAIDLELRYRGLRSPHKLKSAVSGCARECAEAQSKDFGIIATANGWNLYVGGNGGATPRHADLLAQDLSDAELVRLIDRFLMFYIRTADRLERTSVWLERIPGGLDHIRDVVVHDSLGICEELESLMTAHVANYRDEWTETINDPEKLARFVSFVNAPDTPDPVVGFVPERDQIKPDLPLLTIGHRPLEGSAQR” it was “failed”.
